Reference: PMC8022203 (ACS infectious diseases, 2021)

Key:
[1] = tested on: CCN(CC)c1ccc2cc(-c3ccc(/C=N/NC(N)=S)s3)c(=O)oc2c1; experiment: purified protein; conditions: pH 8.0; 37.0 °C
[2] = tested on: CC(=O)Nc1ccc(/C=N/NC(N)=S)cc1; experiment: purified protein; conditions: pH 8.0; 37.0 °C

EthA (Mycobacterium tuberculosis H37Rv) was tested, and the Km [1] was 16 ± 2 µM and the Km [2] was 153 ± 11 µM.
